No end group written: not given here.

This assay addresses T1, biotinylated hTM4SF4 (T126-E140) peptide containing a GSAGGS spacer (Homo sapiens, also: biotin, position not given here, GSAGGS spacer, position not given here).
T1 construct: human TM4SF4, residues T126-E140 of the large extracellular loop; also called biotinylated hTM4SF4 peptide; hTM4SF4 peptide
T1 chain: TWGYPFHDGDYLNDE
Nature of the assay: SPR; Biacore T200; biotinylated hTM4SF4 peptide with GSAGGS spacer immobilised on a streptavidin chip; antibodies in two-fold dilutions (128-1 nM or 512-16 nM) in HBS-EP+; 25°C; 30 μL/min; 1:1 binding model. Conditions: both partners purified. On the technique in general: SPR reads the build-up and loss of mass on a sensor chip optically.

B1: murine anti-hTM4SF4 monoclonal antibody 2B7 (antibody, V domains shown)
VH: EVKLEESGPGILQPSQTLSLTCSFSGFSLSTYGIGVSWIRQPSGKGLEWLAHIWWNDNKYYNTALKSRLTISKDTSNNQVFLKIASVDTADTATYYCARKEGSSAPFAYWGQGTLVTVSA
VL: not shown
notes: VH of murine 2B7; mouse IgG1 heavy chain constant region; Vκ of murine 2B7; mouse kappa light chain constant region; murine IgG1, kappa; also called murine 2B7; anti-hTM4SF4 mAb 2B7; source: murine hybridoma, purified from culture supernatant (protein G chromatography)
By Kd is commonly meant the concentration at which binding is half-saturated. The molecule B1 showed a Kd of 2.66 nM.

Source of the values: PMC12680531, “A novel TM4SF4-targeting therapeutic antibody candidate with antitumor activity by blocking IGF1R and CD44 signaling and downregulating PD-L1 and B7-H4” (Theranostics, 2026).
